Reference: the supplement of paper PMC9170038

Tested on: MS2 coat protein
Assay: apparent KD of MS2 coat protein; designed switch direction (-1 OFF switch, 1 ON switch): -1; higher = weaker reporter binding
How it was run: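 Designed RNA switches with common flanks were transcribed on Illumina chips by stalled E. coli RNA polymerase and titrated with SNAP-549-labelled MS2 coat protein, from 0.7 or 1.5 nM doubling to 3 µM, in Tris-HCl pH 7.5 buffer with KCl, MgCl2, BSA, DTT, tRNA and Tween-20. Steps lasted 0.8–1.5 h (lowest) to 10–20 min (highest). Titrations ran without input, with 200 uM small-molecule ligand, or with an oligonucleotide input. Normalised cluster fluorescence was curve-fitted, and apparent KD is the per-design median over clusters.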

[1] = Eterna round: R95, input ligand: FMN 200 uM
[2] = Eterna round: R95, input ligand: microRNA oligo, concentration not stated
[3] = Eterna round: R95, input ligand: none
[4] = input ligand: microRNA oligo, concentration not stated

Sequence	apparent KD of MS2 coat protein [2] [µM]	apparent KD of MS2 coat protein (input ligand: FMN 200 uM) [µM]	apparent KD of MS2 coat protein (input ligand: none) [µM]	also measured
CAGGACUUAGGAUAUCAUGUGCGAGACAUGAGGAUCACCCAUGUAGGAAGCCGUCGCGGGUGAGAAGGAGGGCGAU [Exclusion 5 S1] (puzzle: Exclusion 5)	0.277	–	–	apparent KD of MS2 coat protein [1]: 0.266 µM; apparent KD of MS2 coat protein [3]: 0.366 µM
CAGGAUAGAGGAUAUACAUAGAUACAGAUUCGUGUAAUCCUACAUGAGGAUCACCCAUGUAGAAGGCUAUCCUG [Fiskers Ex 2 - 20] (puzzle: Exclusion 2)	0.0132	–	–	–
CAGGAUAGAGGAUAUACAUAGAUACAGGUUCAUGUAAUCCUACAUGAGGAUCACCCAUGUAGAAGGCUAUCCUG [Fiskers Ex 2 - 19] (puzzle: Exclusion 2)	0.0148	–	–	–
CAGGUUAGAGGAUAUACGUAGGUACAGAUCUGUGUGUUCCUACAUGAGGAUCACCCAUGUAGAAGGCUAUCCUG [LRO-Excl2-09] (puzzle: Exclusion 2)	0.0619	–	–	–
CAGUACAGAGGAUAUACAUGAGGAUCACCCAUGUGUAGCAGCUAGGAGACUAGCGCAUGUAGAAGGCUGUACUG [jl-ex3-4.31 salish99 mod] (Eterna round: R97, puzzle: Exclusion 3)	–	0.129	0.0213	–
CAGUACAGAGGAUAUACAUGAGGAUCACCCAUGUGUUUCAGCAUCGAAAGAUGCGAAUGUAGAAGGCUGUACUG [jl-ex3-4.26 salish99 mod] (Eterna round: R97, puzzle: Exclusion 3)	–	0.313	0.0265	–
CAGUACAGAGGAUAUACAUGAGGAUCACCCAUGUGUUUCAGCUAGGAAACUAGCGAAUGUAGAAGGCUGUACUG [jl-ex3-4.24 salish99 mod] (Eterna round: R97, puzzle: Exclusion 3)	–	0.178	0.0383	–
CAGUACUGAGGAUAUACAUGAGGAUCACCCAUGUAAUAAUCGUAGGAAACUACGAUAUGUAGAAGGCAGUACUG [Eli x3 4.04] (Eterna round: R97, puzzle: Exclusion 3)	–	0.016	0.0131	–
CAGUACUGAGGAUAUACAUGAGGAUCACCCAUGUGAGUGAUACUAGUGAGGUCGAUUAGUAGAAGGCAGUACUG [Mat X3R4 m27] (Eterna round: R97, puzzle: Exclusion 3)	–	1.11	0.123	–
CAGUACUGAGGAUAUACAUGAGGAUCACCCAUGUGAUUCAGUGCACGCGUACGUGUACGUAGAAGGCAGUACUG [JL 3.27 m2] (Eterna round: R97, puzzle: Exclusion 3)	–	0.761	0.049	–
CAGUACUGAGGAUAUACAUGAGGAUCACCCAUGUGCCUAAGCUAGGAUACUAGCAUUAGUAGAAGGCAGUACUG [Fiskers Ex 3 828 mod 15] (puzzle: Exclusion 3)	0.0136	–	–	–
CAGUACUGAGGAUAUACAUGAGGAUCACCCAUGUGCUUUAGCUAGGAUACUAGCACUAGUAGAAGGCAGUACUG [Fiskers Ex 3 828 mod 10] (puzzle: Exclusion 3)	0.0123	–	–	–
CAGUACUGAGGAUAUACAUGAGGAUCACCCAUGUGUCCCAGCUAGGAAACUAGCAAAAGUAGAAGGCAGUACUG [828 mod 2 m4] (Eterna round: R97, puzzle: Exclusion 3)	–	0.622	0.0281	–
CAGUACUGAGGAUAUACAUGAGGAUCACCCAUGUGUCCCAGCUAGGAAACUAGCAAAAGUAGAAGGCAGUACUG [Fiskers Ex 3 828 mod 1] (Eterna round: R96, puzzle: Exclusion 3)	–	–	–	apparent KD of MS2 coat protein [4]: 0.0206 µM
CAGUACUGAGGAUAUACAUGAGGAUCACCCAUGUGUCCCAGCUAGGAAACUAGCAAAAGUAGAAGGCAGUACUG [Fiskers Ex 3 828 mod 1] (puzzle: Exclusion 3)	0.0244	–	–	apparent KD of MS2 coat protein [1]: 0.42 µM; apparent KD of MS2 coat protein [3]: 0.0245 µM
CAGUACUGAGGAUAUACAUGAGGAUCACCCAUGUGUCUUCUAUUAGGAAACUAGUUAUGUAGAAGGCAGUACUG [Omei Ex3 Mod of Eli 4.27 v8] (Eterna round: R97, puzzle: Exclusion 3)	–	0.221	0.0169	–
CAGUACUGAGGAUAUACAUGAGGAUCACCCAUGUGUGUGAGUUUUGGAUGAAUGUUAUGUAGAAGGCGGUGCUG [JR_Ex3_Sub036] (Eterna round: R97, puzzle: Exclusion 3)	–	0.179	0.466	–
CAGUACUGAGGAUAUACAUGAGGAUCACCCAUGUGUGUGAGUUUUGUAUGAAUGUUAUGUAGAAGGCGGUGCUG [JR_Ex3_Sub034] (Eterna round: R97, puzzle: Exclusion 3)	–	0.285	0.504	–
CAGUACUGAGGAUAUACAUGAGGAUCACCCAUGUGUUCCAGCUAGGAAACUAGCAAAAGUAGAAGGCAGUACUG [Ex3: 828] (Eterna round: R96, puzzle: Exclusion 3)	–	0.646	0.0259	apparent KD of MS2 coat protein [4]: 0.0221 µM
CAGUACUGAGGAUAUACAUGAGGAUCACCCAUGUGUUCCAGCUAGGAAACUAGCAAAAGUAGAAGGCAGUACUG [salish99_ex3_r3_064] (puzzle: Exclusion 3)	0.0196	–	–	apparent KD of MS2 coat protein [1]: 0.285 µM; apparent KD of MS2 coat protein [3]: 0.0224 µM
CAGUACUGAGGAUAUACAUGAGGAUCACCCAUGUGUUCCAGCUAGGAAACUAGCAAGAGUAGAAGGCAGUACUG [salish99_ex3_r3_066] (Eterna round: R96, puzzle: Exclusion 3)	–	0.543	0.0229	apparent KD of MS2 coat protein [4]: 0.0185 µM
CAGUACUGAGGAUAUACAUGAGGAUCACCCAUGUGUUCCAGCUAGGAAACUAGCAAGAGUAGAAGGCAGUACUG [salish99_ex3_r3_066] (puzzle: Exclusion 3)	0.0241	–	–	–
CAGUACUGAGGAUAUACAUGAGGAUCACCCAUGUGUUCCAGCUAGGAAACUAGCAAGUGUAGAAGGCAGUACUG [Salish 065 m7] (Eterna round: R97, puzzle: Exclusion 3)	–	1.09	0.41	–
CAGUACUGAGGAUAUACAUGAGGAUCACCCAUGUGUUCCAGCUAGGAGACUAGCAAAAGUAGAAGGCAGUACUG [salish99_ex3_r3_074] (Eterna round: R96, puzzle: Exclusion 3)	–	0.523	0.0251	apparent KD of MS2 coat protein [4]: 0.02 µM
CAGUACUGAGGAUAUACAUGAGGAUCACCCAUGUGUUCCAGCUAGGAGACUAGCAAAAGUAGAAGGCAGUACUG [salish99_ex3_r3_074] (puzzle: Exclusion 3)	0.0235	–	–	–
